# Results published in US9644019B2, “Compounds for treating cardiac damage after ischaemia/reperfusion” (priority 2010, dated 2017).
# Key:
# [1] = molecular target: T1, EMMPRIN (Mus musculus, UniProt P18572); experiment: AP-9 peptide / EMMPRIN co-localization in MAEC cells; format: binding; conditions: DETA-NO 100 μM overnight, 0.08 mg/ml AP-9 peptide
# T1 construct: Said cells were incubated overnight with the nitric oxide donor (DETA-NO) (100 μM) to induce EMMPRIN expression; endogenous in cells; host or cells: MAEC (mouse aortic endothelial cells), fixed with 4% PFA
# T1 sequence (P18572 22-273 isoform P18572-2 limits assumed): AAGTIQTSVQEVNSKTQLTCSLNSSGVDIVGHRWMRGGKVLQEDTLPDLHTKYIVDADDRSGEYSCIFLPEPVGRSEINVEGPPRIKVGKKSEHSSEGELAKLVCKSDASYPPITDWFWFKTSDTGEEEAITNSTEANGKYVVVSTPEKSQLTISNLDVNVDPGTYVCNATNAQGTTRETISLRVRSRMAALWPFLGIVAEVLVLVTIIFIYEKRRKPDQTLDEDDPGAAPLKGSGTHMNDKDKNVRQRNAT
# Description: The MAEC cells were incubated overnight with the nitric oxide donor (DETA-NO) (100 μM) to induce EMMPRIN expression (right panel). The MAEC cells without DETA-NO were used as a control (left panel). The MAEC cells were fixed with 4% PFA and incubated with 0.08 mg/ml of AP-9 peptide. EMMPRIN expression was detected using an anti-EMMPRIN antibody (1:1000), observing that both signals co-localize (right panel, top right square). The cores were stained with DAPI.
# MAEC cells (mouse aortic endothelial cells) were used for the in vitro assays. Said cells were incubated overnight with the nitric oxide donor (DETA-NO) (100 μM) to induce EMMPRIN expression. The MAEC cells without DETA-NO were used as a control. The MAEC cells were fixed with 4% PFA and incubated with 0.08 mg/ml of AP-9 peptide. EMMPRIN expression was subsequently detected using an anti-EMMPRIN antibody (1:1000).
# [2] = tested on: EMMPRIN-induced MMP-9 expression; experiment: EMMPRIN-induced MMP-9 expression in MAEC cells (anti-MMP-9 immunodetection); format: cell-based, mouse; conditions: 100 μM DETA-NO, AP-9 peptide 0.08 mg/ml overnight, vs PBS
# Description: MAEC cells were incubated with 100 μM of DETA-NO to induce EMMPRIN expression (B, D). MAEC cells without DETA-NO were used as a control (A, C). After 3 hours of treatment with DETA-NO, the MAEC cells were incubated overnight with AP-9 peptide (0.08 mg/ml) (C, D) or with PBS (A, B). The MAEC cells were fixed with 4% PFA, and MMP-9 expression was detected using an anti-MMP-9 antibody (1:1000). […] The cores were stained with DAPI.
# Likewise, to ascertain if AP-9 peptide inhibited EMMPRIN-induced MMP-9 expression, MAEC cells were incubated with 100 μM of DETA-NO to induce EMMPRIN expression. After 3 hours of treatment with DETA-NO, the MAEC cells were incubated overnight with AP-9 peptide (0.08 mg/ml) or with PBS as a control without peptide. MAEC cells without DETA-NO were used as a control. Finally, the MAEC cells were fixed with 4% PFA and MMP-9 expression was detected using an anti-MMP-9 antibody (1:1000).
sequence,measurement,setting,value
"YKLPGHHHHYRP (SEQ ID NO: 3) [AP-9 peptide, EMMPRIN antagonist peptide described in the literature]",binding to EMMPRIN (co-localization of signals),[1],binds specifically
same,EMMPRIN-induced MMP-9 expression,[2],inhibition
